Reference: patent US20210388087A1 (Chugai, published 2021)

B1: CE115HA000/GLS3000 N28W (antibody, IgG1, name in Kabat numbering, V domains shown)
VH: QVQLVESGGGVVQPGRSLRLSCAASGFTFSNAWMHWVRQAPGKGLEWVAQIKAKSNNYATYYAESVKGRFTISRDDSKNSLYLQMNSLKTEDTAVYYCRYVHYGAYYGVDAWGQGTTVTVSS
VL: DIVMTQSPLSLPVTPGEPASISCRSSQSLVHSWRNTYLHWYQQKPGQAPRLLIYKVSNRFSGVPDRFSGSGSGTDFTLKISRVEAEDVGVYYCGQGTQVPYTFGQGTKLEIK
notes: one-arm IgG1
B2: CE115HA000/GLS3000 N30S (antibody, IgG1, name in Kabat numbering, V domains shown)
VH: QVQLVESGGGVVQPGRSLRLSCAASGFTFSNAWMHWVRQAPGKGLEWVAQIKAKSNNYATYYAESVKGRFTISRDDSKNSLYLQMNSLKTEDTAVYYCRYVHYGAYYGVDAWGQGTTVTVSS
VL: DIVMTQSPLSLPVTPGEPASISCRSSQSLVHSNRSTYLHWYQQKPGQAPRLLIYKVSNRFSGVPDRFSGSGSGTDFTLKISRVEAEDVGVYYCGQGTQVPYTFGQGTKLEIK
notes: one-arm IgG1
B3: CE115HA000/GLS3000 N30L (antibody, IgG1, name in Kabat numbering, V domains shown)
VH: QVQLVESGGGVVQPGRSLRLSCAASGFTFSNAWMHWVRQAPGKGLEWVAQIKAKSNNYATYYAESVKGRFTISRDDSKNSLYLQMNSLKTEDTAVYYCRYVHYGAYYGVDAWGQGTTVTVSS
VL: DIVMTQSPLSLPVTPGEPASISCRSSQSLVHSNRLTYLHWYQQKPGQAPRLLIYKVSNRFSGVPDRFSGSGSGTDFTLKISRVEAEDVGVYYCGQGTQVPYTFGQGTKLEIK
notes: one-arm IgG1
B4: CE115HA000/GLS3000 N30I (antibody, IgG1, name in Kabat numbering, V domains shown)
VH: QVQLVESGGGVVQPGRSLRLSCAASGFTFSNAWMHWVRQAPGKGLEWVAQIKAKSNNYATYYAESVKGRFTISRDDSKNSLYLQMNSLKTEDTAVYYCRYVHYGAYYGVDAWGQGTTVTVSS
VL: DIVMTQSPLSLPVTPGEPASISCRSSQSLVHSNRITYLHWYQQKPGQAPRLLIYKVSNRFSGVPDRFSGSGSGTDFTLKISRVEAEDVGVYYCGQGTQVPYTFGQGTKLEIK
notes: one-arm IgG1
B5: CE115HA000/GLS3000 N30E (antibody, IgG1, name in Kabat numbering, V domains shown)
VH: QVQLVESGGGVVQPGRSLRLSCAASGFTFSNAWMHWVRQAPGKGLEWVAQIKAKSNNYATYYAESVKGRFTISRDDSKNSLYLQMNSLKTEDTAVYYCRYVHYGAYYGVDAWGQGTTVTVSS
VL: DIVMTQSPLSLPVTPGEPASISCRSSQSLVHSNRETYLHWYQQKPGQAPRLLIYKVSNRFSGVPDRFSGSGSGTDFTLKISRVEAEDVGVYYCGQGTQVPYTFGQGTKLEIK
notes: one-arm IgG1
B6: CE115HA000/GLS3000 N30Y (antibody, IgG1, name in Kabat numbering, V domains shown)
VH: QVQLVESGGGVVQPGRSLRLSCAASGFTFSNAWMHWVRQAPGKGLEWVAQIKAKSNNYATYYAESVKGRFTISRDDSKNSLYLQMNSLKTEDTAVYYCRYVHYGAYYGVDAWGQGTTVTVSS
VL: DIVMTQSPLSLPVTPGEPASISCRSSQSLVHSNRYTYLHWYQQKPGQAPRLLIYKVSNRFSGVPDRFSGSGSGTDFTLKISRVEAEDVGVYYCGQGTQVPYTFGQGTKLEIK
notes: one-arm IgG1
B7: CE115HA000/GLS3000 N30Q (antibody, IgG1, name in Kabat numbering, V domains shown)
VH: QVQLVESGGGVVQPGRSLRLSCAASGFTFSNAWMHWVRQAPGKGLEWVAQIKAKSNNYATYYAESVKGRFTISRDDSKNSLYLQMNSLKTEDTAVYYCRYVHYGAYYGVDAWGQGTTVTVSS
VL: DIVMTQSPLSLPVTPGEPASISCRSSQSLVHSNRQTYLHWYQQKPGQAPRLLIYKVSNRFSGVPDRFSGSGSGTDFTLKISRVEAEDVGVYYCGQGTQVPYTFGQGTKLEIK
notes: one-arm IgG1
B8: CE115HA000/GLS3000 N30P (antibody, IgG1, name in Kabat numbering, V domains shown)
VH: QVQLVESGGGVVQPGRSLRLSCAASGFTFSNAWMHWVRQAPGKGLEWVAQIKAKSNNYATYYAESVKGRFTISRDDSKNSLYLQMNSLKTEDTAVYYCRYVHYGAYYGVDAWGQGTTVTVSS
VL: DIVMTQSPLSLPVTPGEPASISCRSSQSLVHSNRPTYLHWYQQKPGQAPRLLIYKVSNRFSGVPDRFSGSGSGTDFTLKISRVEAEDVGVYYCGQGTQVPYTFGQGTKLEIK
notes: one-arm IgG1
B9: CE115HA000/GLS3000 N28Y (antibody, IgG1, name in Kabat numbering, V domains shown)
VH: QVQLVESGGGVVQPGRSLRLSCAASGFTFSNAWMHWVRQAPGKGLEWVAQIKAKSNNYATYYAESVKGRFTISRDDSKNSLYLQMNSLKTEDTAVYYCRYVHYGAYYGVDAWGQGTTVTVSS
VL: DIVMTQSPLSLPVTPGEPASISCRSSQSLVHSYRNTYLHWYQQKPGQAPRLLIYKVSNRFSGVPDRFSGSGSGTDFTLKISRVEAEDVGVYYCGQGTQVPYTFGQGTKLEIK
notes: one-arm IgG1
B10: CE115HA000/GLS3000 N53D (antibody, IgG1, name in Kabat numbering, V domains shown)
VH: QVQLVESGGGVVQPGRSLRLSCAASGFTFSNAWMHWVRQAPGKGLEWVAQIKAKSNNYATYYAESVKGRFTISRDDSKNSLYLQMNSLKTEDTAVYYCRYVHYGAYYGVDAWGQGTTVTVSS
VL: DIVMTQSPLSLPVTPGEPASISCRSSQSLVHSNRNTYLHWYQQKPGQAPRLLIYKVSDRFSGVPDRFSGSGSGTDFTLKISRVEAEDVGVYYCGQGTQVPYTFGQGTKLEIK
notes: one-arm IgG1
B11: CE115HA000/GLS3000 N30G (antibody, IgG1, name in Kabat numbering, V domains shown)
VH: QVQLVESGGGVVQPGRSLRLSCAASGFTFSNAWMHWVRQAPGKGLEWVAQIKAKSNNYATYYAESVKGRFTISRDDSKNSLYLQMNSLKTEDTAVYYCRYVHYGAYYGVDAWGQGTTVTVSS
VL: DIVMTQSPLSLPVTPGEPASISCRSSQSLVHSNRGTYLHWYQQKPGQAPRLLIYKVSNRFSGVPDRFSGSGSGTDFTLKISRVEAEDVGVYYCGQGTQVPYTFGQGTKLEIK
notes: one-arm IgG1
B12: CE115HA000/GLS3000 N30T (antibody, IgG1, name in Kabat numbering, V domains shown)
VH: QVQLVESGGGVVQPGRSLRLSCAASGFTFSNAWMHWVRQAPGKGLEWVAQIKAKSNNYATYYAESVKGRFTISRDDSKNSLYLQMNSLKTEDTAVYYCRYVHYGAYYGVDAWGQGTTVTVSS
VL: DIVMTQSPLSLPVTPGEPASISCRSSQSLVHSNRTTYLHWYQQKPGQAPRLLIYKVSNRFSGVPDRFSGSGSGTDFTLKISRVEAEDVGVYYCGQGTQVPYTFGQGTKLEIK
notes: one-arm IgG1
B13: CE115HA000/GLS3000 N30H (antibody, IgG1, name in Kabat numbering, V domains shown)
VH: QVQLVESGGGVVQPGRSLRLSCAASGFTFSNAWMHWVRQAPGKGLEWVAQIKAKSNNYATYYAESVKGRFTISRDDSKNSLYLQMNSLKTEDTAVYYCRYVHYGAYYGVDAWGQGTTVTVSS
VL: DIVMTQSPLSLPVTPGEPASISCRSSQSLVHSNRHTYLHWYQQKPGQAPRLLIYKVSNRFSGVPDRFSGSGSGTDFTLKISRVEAEDVGVYYCGQGTQVPYTFGQGTKLEIK
notes: one-arm IgG1
B14: CE115HA000/GLS3000 N30A (antibody, IgG1, name in Kabat numbering, V domains shown)
VH: QVQLVESGGGVVQPGRSLRLSCAASGFTFSNAWMHWVRQAPGKGLEWVAQIKAKSNNYATYYAESVKGRFTISRDDSKNSLYLQMNSLKTEDTAVYYCRYVHYGAYYGVDAWGQGTTVTVSS
VL: DIVMTQSPLSLPVTPGEPASISCRSSQSLVHSNRATYLHWYQQKPGQAPRLLIYKVSNRFSGVPDRFSGSGSGTDFTLKISRVEAEDVGVYYCGQGTQVPYTFGQGTKLEIK
notes: one-arm IgG1
B15: CE115HA000/GLS3000 N30W (antibody, IgG1, name in Kabat numbering, V domains shown)
VH: QVQLVESGGGVVQPGRSLRLSCAASGFTFSNAWMHWVRQAPGKGLEWVAQIKAKSNNYATYYAESVKGRFTISRDDSKNSLYLQMNSLKTEDTAVYYCRYVHYGAYYGVDAWGQGTTVTVSS
VL: DIVMTQSPLSLPVTPGEPASISCRSSQSLVHSNRWTYLHWYQQKPGQAPRLLIYKVSNRFSGVPDRFSGSGSGTDFTLKISRVEAEDVGVYYCGQGTQVPYTFGQGTKLEIK
notes: one-arm IgG1
B16: CE115HA000/GLS3000 N30V (antibody, IgG1, name in Kabat numbering, V domains shown)
VH: QVQLVESGGGVVQPGRSLRLSCAASGFTFSNAWMHWVRQAPGKGLEWVAQIKAKSNNYATYYAESVKGRFTISRDDSKNSLYLQMNSLKTEDTAVYYCRYVHYGAYYGVDAWGQGTTVTVSS
VL: DIVMTQSPLSLPVTPGEPASISCRSSQSLVHSNRVTYLHWYQQKPGQAPRLLIYKVSNRFSGVPDRFSGSGSGTDFTLKISRVEAEDVGVYYCGQGTQVPYTFGQGTKLEIK
notes: one-arm IgG1
B17: CE115HA000/GLS3000 N53A (antibody, IgG1, name in Kabat numbering, V domains shown)
VH: QVQLVESGGGVVQPGRSLRLSCAASGFTFSNAWMHWVRQAPGKGLEWVAQIKAKSNNYATYYAESVKGRFTISRDDSKNSLYLQMNSLKTEDTAVYYCRYVHYGAYYGVDAWGQGTTVTVSS
VL: DIVMTQSPLSLPVTPGEPASISCRSSQSLVHSNRNTYLHWYQQKPGQAPRLLIYKVSARFSGVPDRFSGSGSGTDFTLKISRVEAEDVGVYYCGQGTQVPYTFGQGTKLEIK
notes: one-arm IgG1
B18: CE115HA000/GLS3000 N30D (antibody, IgG1, name in Kabat numbering, V domains shown)
VH: QVQLVESGGGVVQPGRSLRLSCAASGFTFSNAWMHWVRQAPGKGLEWVAQIKAKSNNYATYYAESVKGRFTISRDDSKNSLYLQMNSLKTEDTAVYYCRYVHYGAYYGVDAWGQGTTVTVSS
VL: DIVMTQSPLSLPVTPGEPASISCRSSQSLVHSNRDTYLHWYQQKPGQAPRLLIYKVSNRFSGVPDRFSGSGSGTDFTLKISRVEAEDVGVYYCGQGTQVPYTFGQGTKLEIK
notes: one-arm IgG1
B19: CE115HA000/GLS3000 N30M (antibody, IgG1, name in Kabat numbering, V domains shown)
VH: QVQLVESGGGVVQPGRSLRLSCAASGFTFSNAWMHWVRQAPGKGLEWVAQIKAKSNNYATYYAESVKGRFTISRDDSKNSLYLQMNSLKTEDTAVYYCRYVHYGAYYGVDAWGQGTTVTVSS
VL: DIVMTQSPLSLPVTPGEPASISCRSSQSLVHSNRMTYLHWYQQKPGQAPRLLIYKVSNRFSGVPDRFSGSGSGTDFTLKISRVEAEDVGVYYCGQGTQVPYTFGQGTKLEIK
notes: one-arm IgG1
B20: CE115HA000/GLS3000 N30R (antibody, IgG1, name in Kabat numbering, V domains shown)
VH: QVQLVESGGGVVQPGRSLRLSCAASGFTFSNAWMHWVRQAPGKGLEWVAQIKAKSNNYATYYAESVKGRFTISRDDSKNSLYLQMNSLKTEDTAVYYCRYVHYGAYYGVDAWGQGTTVTVSS
VL: DIVMTQSPLSLPVTPGEPASISCRSSQSLVHSNRRTYLHWYQQKPGQAPRLLIYKVSNRFSGVPDRFSGSGSGTDFTLKISRVEAEDVGVYYCGQGTQVPYTFGQGTKLEIK
notes: one-arm IgG1
B21: CE115HA000/GLS3000 N30K (antibody, IgG1, name in Kabat numbering, V domains shown)
VH: QVQLVESGGGVVQPGRSLRLSCAASGFTFSNAWMHWVRQAPGKGLEWVAQIKAKSNNYATYYAESVKGRFTISRDDSKNSLYLQMNSLKTEDTAVYYCRYVHYGAYYGVDAWGQGTTVTVSS
VL: DIVMTQSPLSLPVTPGEPASISCRSSQSLVHSNRKTYLHWYQQKPGQAPRLLIYKVSNRFSGVPDRFSGSGSGTDFTLKISRVEAEDVGVYYCGQGTQVPYTFGQGTKLEIK
notes: one-arm IgG1

Target: T1, CD3 epsilon homodimer protein (UniProt P07766 23-126)
T1 construct: also called CD3 (CD3 epsilon)
T1 sequence (P07766 23-126): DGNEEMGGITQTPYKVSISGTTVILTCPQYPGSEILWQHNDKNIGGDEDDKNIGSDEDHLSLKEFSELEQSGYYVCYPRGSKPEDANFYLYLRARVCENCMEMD
Test: SPR, antibody over immobilised CD3e homodimer;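 note: SPR at 25 °C with CD3 epsilon homodimer amine-coupled to a CM4 sensor chip and antibody flowed over as analyte in HBS-EP+ running buffer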

In order of rising “KD ratio to GLS3000” value:
1. B17  0.82
2. B15  0.97
3. B7  1
4. B6  1.03
5. B13  1.08
6. B14  1.16
7. B3  1.19
8. B19  1.2
9. B4  1.24
10. B21  1.35
11. B20  1.73
12. B11  2.1
13. B16  2.62
14. B10  2.8
15. B5  2.83
16. B1  3.17
17. B18  3.82
18. B9  3.89
19. B2  10.6
20. B8  12.1
21. B12  12.7
